This note sets out measurements from paper PMC6203356.

For this assay, the target named is CENP-A (endogenous, soluble pre-assembly fraction) (human (endogenous in SW480)) (UniProt P49450). The assay is described as follows: co-IP; CENP-A IP (ACA serum) or mock IP from the soluble fraction (PBS, 0.5% NP-40) of SW480 cells treated 72 hours with control or HJURP siRNA; Western blot for the chaperones. For orientation: In western blotting, separated proteins are transferred to a membrane and probed.
UniProt P49450, sequence (P49450 whole entry): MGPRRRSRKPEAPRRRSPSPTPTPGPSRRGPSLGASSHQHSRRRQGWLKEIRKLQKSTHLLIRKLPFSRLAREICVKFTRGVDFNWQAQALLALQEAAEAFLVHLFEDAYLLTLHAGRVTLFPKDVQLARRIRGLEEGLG

“HIRA (endogenous) (from UniProt P54198 1-1017) (natural protein)” registered a fold increase in the amount bound to CENP-A after HJURP knockdown against control siRNA of 2.4 fold.
